# Values of other authors, collected in paper PMC5729051.
# Target: amyloid-beta oligomer (Homo sapiens) (UniProt P05067)
substance,measurement,value
Cellular Prion Protein (PrPC) (from UniProt P04156),Kd,0.4 nM
